B1: humanized 23C2 mAb (antibody, human IgG1, kappa, V domains shown)
VH: DVQLQESGPGLVKPSQSLSLTCSVTGYSIKSGYYWNWIRQFPGNKLEWMGYISYGGDFTYNPSLKNRISITRDTSKNQFFLKLNSVTTEDTATYFCVREPNWESYFDIWGAGTTVTVSS
VL: DIQMTQSPASLSASVGETVTITCRASDNIYSYLTWYHQKQGKSPHLLVYNAKTLPEGVPLRFSGTGSGTQFSLKINSLQPEDFGIYFCLHDYGFPRTFGGGTILEVKR
B2: humanized 2C7 mAb (antibody, human IgG1, kappa, V domains shown)
VH: EVQLQQSGPELEKPGASVKISCKASGYSFTGYNMNWVKQSNGKSLEWIGNIDPYFGGTSYNQKFKGKATLTVDKSSSTAYMELKSLTSEDSAVYYCARHYGYFPWFAYWGQGTLVTVSA
VL: DIVLTQSPASLAVSLGQRATISCRASESVDSSGNSFMHWYQQKPGQPPKLLIYRASNLESGIPARFSGSGSRTDFTLTINPVGADDVATYYCQQSNEDPWTFGGGTKLEIKR
B3: humanized 26B6 mAb (antibody, human IgG1, kappa, V domains shown)
VH: EVQLVESGGGLVKPGGSLKLSCAASGFTITDYYIYWLRQTPEKKLEWVAAISDGGRYTDYPDSVKGRFTMSSDNAKTNLYLQMGSLQSDDTGMYYCARWASYGYHWYFDVWGAGTTVTVSS
VL: DIQMTQTTSSLSASLGDRVTISCSASQDISNYINWYQQKRDGTVKLLIYDSSSLHSGVPSRFSGSGSGTDYSLTISNLEPEDFATYFCQQYSNLPPTFGGGTNLEIKR

How the values were obtained:
[1] = biological target: HCMV Pentamer protein complex (gH/gL/UL128/UL130/UL131A) (Human Cytomegalovirus (HCMV)); assay: SPR Biacore 8K+, single-cycle kinetics, IgG captured on Protein A chip, Pentamer as analyte, 1:1 fit
HCMV Pentamer protein complex (gH/gL/UL128/UL130/UL131A) (Human Cytomegalovirus (HCMV)), sequence (Q6SW67 24-719, chain 1 of 4): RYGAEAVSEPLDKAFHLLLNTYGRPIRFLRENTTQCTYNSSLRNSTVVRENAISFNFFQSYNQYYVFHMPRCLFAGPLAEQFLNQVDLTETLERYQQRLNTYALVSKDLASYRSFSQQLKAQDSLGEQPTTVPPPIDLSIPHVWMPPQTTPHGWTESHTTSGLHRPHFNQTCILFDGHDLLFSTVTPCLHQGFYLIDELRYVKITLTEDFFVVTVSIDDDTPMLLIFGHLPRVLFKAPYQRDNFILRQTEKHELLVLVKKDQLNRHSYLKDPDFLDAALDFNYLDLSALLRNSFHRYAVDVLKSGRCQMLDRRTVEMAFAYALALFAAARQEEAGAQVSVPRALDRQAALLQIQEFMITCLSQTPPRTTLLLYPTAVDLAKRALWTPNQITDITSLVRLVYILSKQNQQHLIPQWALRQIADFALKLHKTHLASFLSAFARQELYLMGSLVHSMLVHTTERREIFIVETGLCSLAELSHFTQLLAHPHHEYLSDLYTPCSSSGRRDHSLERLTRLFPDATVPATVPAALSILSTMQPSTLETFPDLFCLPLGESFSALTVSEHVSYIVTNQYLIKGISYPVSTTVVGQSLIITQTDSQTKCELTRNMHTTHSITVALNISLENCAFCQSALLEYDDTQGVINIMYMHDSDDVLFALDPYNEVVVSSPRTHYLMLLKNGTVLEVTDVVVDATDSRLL
HCMV Pentamer protein complex (gH/gL/UL128/UL130/UL131A) (Human Cytomegalovirus (HCMV)), sequence (F5HCH8 31-278, chain 2 of 4, further chain): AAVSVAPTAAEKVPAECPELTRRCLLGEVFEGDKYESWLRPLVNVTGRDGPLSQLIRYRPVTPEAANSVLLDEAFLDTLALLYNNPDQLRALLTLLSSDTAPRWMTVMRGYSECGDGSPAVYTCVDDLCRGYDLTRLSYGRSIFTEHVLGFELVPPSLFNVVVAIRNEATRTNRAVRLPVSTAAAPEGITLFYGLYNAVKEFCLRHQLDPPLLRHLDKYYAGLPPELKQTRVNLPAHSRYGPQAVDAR
HCMV Pentamer protein complex (gH/gL/UL128/UL130/UL131A) (Human Cytomegalovirus (HCMV)), sequence (P16837 28-171, chain 3 of 4, further chain): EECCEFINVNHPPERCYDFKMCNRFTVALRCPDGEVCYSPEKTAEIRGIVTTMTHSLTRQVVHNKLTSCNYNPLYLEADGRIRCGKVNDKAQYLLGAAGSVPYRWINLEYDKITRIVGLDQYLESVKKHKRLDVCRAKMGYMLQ
HCMV Pentamer protein complex (gH/gL/UL128/UL130/UL131A) (Human Cytomegalovirus (HCMV)), sequence (F5HCP3 26-214, chain 4 of 4, further chain): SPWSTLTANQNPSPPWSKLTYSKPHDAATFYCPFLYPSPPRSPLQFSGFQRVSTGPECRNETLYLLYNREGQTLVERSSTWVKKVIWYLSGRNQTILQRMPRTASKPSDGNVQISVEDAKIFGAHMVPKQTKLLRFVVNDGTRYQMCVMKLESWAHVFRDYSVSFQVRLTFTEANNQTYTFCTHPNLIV

[2] = biological target: HCMV gH/gL/gO protein complex (Human Cytomegalovirus (HCMV)); assay: SPR Biacore 8K+, single-cycle kinetics, IgG captured on Protein A chip, gH/gL/gO as analyte, 1:1 fit

Row | Binder | Kd [1] | koff [1] | kon [1] | Kd [2] | koff [2] | kon [2]
1 | B1 | 1030 pM | 0.000285 s⁻¹ | 275000 M⁻¹ s⁻¹ | – | – | –
2 | B2 | 721 pM | 0.000322 s⁻¹ | 447000 M⁻¹ s⁻¹ | 1000 pM | 0.000416 s⁻¹ | 415000 M⁻¹ s⁻¹
3 | B3 | 123 pM | 5.3e-05 s⁻¹ | 432000 M⁻¹ s⁻¹ | – | – | –
